# Legend:
# Format in all cases: cell-based
# MCF 7 = assay: Apoptosis by FACS analysis in MCF7 cells; settings: synthesized peptides, FIG. 7D
# Source text: FIG. 7D is a graph showing the apoptotic effect by synthesized zinc finger domain peptides of FOG2 in MCF7 cells according to FACS analysis;
# Hep3B cells = assay: Apoptosis by FACS analysis in Hep3B cells; settings: synthesized peptides, 48 hr of treatment, FIG. 4B
# Description: PI3K inactivation is known to cause cancer cell apoptosis, and FOG2 is known to inhibit PI3K activity. To test whether PI3K inactivation by overexpressing FOG2 induces apoptosis, Hep3B cells treated with the peptide synthesized in <Experiment 3> were analyzed with FACS.
# MDA MB 231 cells [1] = assay: Apoptosis by FACS analysis (propidium iodide) in MDA MB 231 cells; settings: for number of apoptotic cells: transfected with 1 μg FOG2 fragment, 2 days, FIG. 7A
# Description: PI3K inactivation has been reported to cause cancer cell apoptosis, and FOG2 is known to inhibit the PI3K activity. To test whether PI3K inactivation by overexpressing FOG2 induces apoptosis, MDA MB 231 cells overexpressed FOG2 were analyzed with FACS.
# MDA MB 231 cells were incubated with Full-FOG2[1-1151], FOG2[1-412], FOG2[413-789] or FOG2[802-1151]. The cells (5×10^4) were seeded in a 12-well plate and transfected with 1 μg of Full-FOG2[1-1151], FOG2[1-412], FOG2[413-789] or FOG2[802-1151] using Lipofectamine 2000. The cells were incubated at 37° C. for 2 days and subject to FACS analysis.
# The cells were incubated with FOG2 fragments and fixed with 70% ethanol for 16 hr. The fixed cells were stained using RNase (5 mg/ml) and propidium iodide ([…]). The amount of DNA in stained cells was analyzed with Cell Quest program of FACS caliber (Becton Dickinson).
# MDA MB 231 cells [2] = assay: Cell migration, modified Boyden chamber method; settings: 18 hr migration
# Method in brief: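 MDA MB 231 cells, transfected with FOG2 constructs (24 hr) or treated 2 days with 4 μM peptides/DMSO, were seeded serum-free (1×10^5) in Boyden chambers, serum-free below, 18 hr at 37° C. Giemsa-stained migrated cells counted in six random fields; mean cells per field.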
# PI3K [3] = target: T1, PI3K (Homo sapiens, UniProt P27986); assay: IGF-1-induced PI3K activation in Hep3B cells incubated with peptides; design: The cell lysates were immunoprecipitated with p85α (sc-1637, Santa Cruz) and Protein G-Sepharose beads; endogenous in cells; host or cells: Hep3B; settings: 4 μM peptides, 48 hr, FIG. 2C
# Description: (§1) For measurement of PI3K activity, 10 μl of sonicated PIP2 (1 μg/μl, Calbiochem), 10 μl of 100 mM MgCl2 and 1 μl of [-^32P]ATP (500 μCi/ml) were added to the kinase buffer (10 mM Tris-HCl (pH 7.4), 150 mM NaCl, 1 mM Na3VO4, 10 mM ZnCl2) and incubated at 37° C. for 30 min. After incubation, 20 μl of 6 N HCl was added to stop the reaction and PIP2 was extracted by treatment with 200 μl of methanol:chloroform (1:1) solution. The amount of radioactively labeled PIP2 in the extract was measured using a scintillator counter.
# In addition, Hep3B liver cancer cells were incubated with 4 μM peptides for 48 hr and the PI3K activity was analyzed.
# PI3K [4] = target: T1, PI3K; assay: PI3K activity in MDA MB 231 cells incubated with zinc finger domain peptides; design: The cell lysates were immunoprecipitated with p85α (sc-1637, Santa Cruz) and Protein G-Sepharose beads; endogenous in cells; settings: synthesized peptides, FIG. 5
# Description: as §1
# For peptide treatment, cells were trypsinized to detach them from a culture dish and their aliquot (2×10^5 cells) was incubated with 4 μM peptides in 100 mm dishes. The control was incubated with Mock (DMSO).
# Akt = Akt phosphorylation by Western blot in transfected Hep3B cells after IGF-1 stimulation; settings: FIG. 1D
# Description: Hep3B cells were transfected with FOG2 mutants having modified zinc finger domain to measure the effect on the Akt signaling by FOG2-ZF-5m. The Akt activity was measured by analyzed Akt phosphorylation.
# Hep3B cells were transfected with pCK-flag (control), FOG2-wt (wild type) and FOG2 mutants having modified zinc finger domain (FOG2-ZF-5-m and FOG2-ZF-6-m) and stimulated with IGF-1. The expression of Akt (Cell signaling Technology, USA), pAkt (Cell signaling Technology, USA) and GAPDH(Santa cruz, USA) were measured by Western blot analysis.
# MDA MB 231 cells [5] = assay: Cell proliferation MTT assay; settings: transfected with 100 ng DNA, 3 days post-transfection, FIG. 6A
# Method in brief: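 Cells (2×10^3/well) were treated with 4 μM peptide for 3 days, or transfected with 100 ng FOG2 wild-type or zinc-finger mutant plasmid and assayed 3 days later. MTT (2 mg/ml) was added for 1 h at 37 °C, dissolved in DMSO, and absorbance was read at 590 nm.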
# PI3K [6] = target: T1, PI3K; assay: PI3K activity in Hep3B cells transfected with FOG2 constructs (p85α immunoprecipitation, 32P-ATP/PIP2 kinase assay); design: The cell lysates were immunoprecipitated with p85α (sc-1637, Santa Cruz) and Protein G-Sepharose beads; endogenous in cells; host or cells: Hep3B; settings: 100 ng/ml IGF-1 30 min, FIG. 1C
# Description: To investigate the inhibitory effect to PI3K activity by FOG2 zinc finger domain, PI3K activity was analyzed using FOG2 mutants having modified zinc finger domain. Specially, it is known that IGF signaling pathway plays an important role in cancer and the increased IGF-1 level enhances the risk of various cancers in many researches.
# Accordingly, the PI3K activity was increased by incubating Hep3B cells with IGF-1 and then measured when the cells were incubated with peptides having mutated FOG2 zinc finger domain.
# After Hep3B cells incubation, 100 ng/ml IGF-1 (Insulin like growth factor-1) was added to the cells and incubated for 30 min.
# Hep3B cells were transfected with pCK-flag (control), FOG2-wt (wild type) and FOG2 mutants having modified zinc finger domain (FOG2-ZF-5-m and FOG2-ZF-6-m). Two days later, the lysates were obtained using a lysis buffer (20 mM Hepes (pH7.4), 100 mM NaCl, 20 mM KAc, 10 mM MgCl2, 10 mM ZnCl2, 1 mM Na3VO4, 1% NPO4). The cell lysates were immunoprecipitated with p85α (sc-1637, Santa Cruz) and Protein G-Sepharose beads using the same method above. After binding to beads, the lysates were washed 2 times with the lysis buffer and one time with the wash buffer (0.1 M Tris-HCl (pH 7.4), 5 mM LiCl, and 0.1 mM Na3VO4).
# as §1
# HCT116 cells = assay: Apoptosis by FACS analysis in HCT116 cells; settings: 2 days after transfection, FIG. 4A
# Description: PI3K inactivation is known to cause cancer cell apoptosis, and FOG2 is known to inhibit PI3K activity. To test whether PI3K inactivation by overexpressing FOG2 induces apoptosis, HCT116 cells transfected with pCK-flag (control), FOG2-wt (wild type) and FOG2 mutants (FOG2-ZF-5-m and FOG2-ZF-6-m) were analyzed with FACS.
# T1 sequence (P27986 whole entry): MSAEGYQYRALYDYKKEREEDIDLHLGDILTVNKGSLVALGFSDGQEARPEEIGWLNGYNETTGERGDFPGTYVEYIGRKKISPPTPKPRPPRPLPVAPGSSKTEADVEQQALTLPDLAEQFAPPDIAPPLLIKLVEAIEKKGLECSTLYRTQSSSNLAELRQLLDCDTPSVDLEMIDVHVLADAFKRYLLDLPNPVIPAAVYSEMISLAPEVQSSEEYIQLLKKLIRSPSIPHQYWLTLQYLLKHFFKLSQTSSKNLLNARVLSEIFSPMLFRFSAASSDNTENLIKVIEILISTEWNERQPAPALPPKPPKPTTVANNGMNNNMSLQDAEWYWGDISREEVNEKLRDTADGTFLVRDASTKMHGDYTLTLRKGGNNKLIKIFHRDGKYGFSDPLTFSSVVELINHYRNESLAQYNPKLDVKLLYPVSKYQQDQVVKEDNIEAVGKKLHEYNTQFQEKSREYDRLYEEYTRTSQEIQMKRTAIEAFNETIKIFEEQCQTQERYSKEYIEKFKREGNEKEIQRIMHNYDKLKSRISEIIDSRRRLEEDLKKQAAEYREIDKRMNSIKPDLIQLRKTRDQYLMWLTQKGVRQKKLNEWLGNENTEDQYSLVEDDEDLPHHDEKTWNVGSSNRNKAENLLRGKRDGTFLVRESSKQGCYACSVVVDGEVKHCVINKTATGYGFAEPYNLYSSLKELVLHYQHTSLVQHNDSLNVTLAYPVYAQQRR
IGF-1-induced PI3K activation (PI3K [3]),PI3K activity (PI3K [4]),Molecule,apoptosis (MCF 7),apoptosis (Hep3B cells),"apoptosis (MDA MB 231 cells [1]; synthesized peptides, FIG. 7C)","reduction of cell migration (MDA MB 231 cells [2]; 4 μM peptide, 2 days of treatment, FIG. 3B)",Akt phosphorylation (Akt),Akt phosphorylation (Akt; listed as FOG2-ZF-wt),number of apoptotic cells (MDA MB 231 cells [1]; listed as FOG2[1-1151]),number of apoptotic cells (MDA MB 231 cells [1]; listed as Full-FOG2[1-1151]),"reduction of cell migration (MDA MB 231 cells [2]; transfected 24 hr, FIG. 3A)",reduction of cell proliferation (MDA MB 231 cells [5]),PI3K activation by IGF-1 stimulation (PI3K [6]),apoptosis (HCT116 cells)
inhibited,decrease PI3K activity,ZF-5-wt-20: The peptide comprising a portion of the fifth zinc finger domain of FOG2 (20 amino acids) (CFECNITFNNLDNYLVHKKH),promoted apoptosis,induced apoptosis,promoted apoptosis,reduce the cell migration,–,–,–,–,–,–,–,–
–,–,"FOG2-wt: The wild type of FOG2; full-length FOG2 cDNA cloned into the pCK-flag vector and overexpressed (protein, left off: small tags and cut ends, The wild type of FOG2; full-length FOG2 cDNA cloned into the pCK-flag vector and overexpressed) MSRRKQSKPRQIKRPLEDAIEDEEEECPSEETDIISKGDFPLEESFSTEFGPENLSCEEVEYFCNKGDDEGIQETAESDGDTQSEKPGQPGVETDDWDGPGELEVFQKDGERKIQSRQQLPVGTTWGPFPGKMDLNNNSLKTKAQVPMVLTAGPKWLLDVTWQGVEDNKNNCIVYSKGGQLWCTTTKAISEGEELIAFVVDFDSRLQAASQMTLTEGMYPARLLDSIQLLPQQAAMASILPTAIVNKDIFPCKSCGIWYRSERNLQAHLMYYCSGRQREAAPVSEENEDSAHQISSLCPFPQCTKSFSNARALEMHLNSHSGVKMEEFLPPGASLKCTVCSYTADSVINFHQHLFSHLTQAAFRCNHCHFGFQTQRELLQHQELHVPSGKLPRESDMEHSPSATEDSLQPATDLLTRSELPQSQKAMQTKDASSDTELDKCEKKTQLFLTNQRPEIQPTTNKQSFSYTKIKSEPSSPRLASSPVQPNIGPSFPVGPFLSQFSFPQDITMVPQASEILAKMSELVHRRLRHGSSSYPPVIYSPLMPKGATCFECNITFNNLDNYLVHKKHYCSSRWQQMAKSPEFPSVSEKMPEALSPNTGQTSINLLNPAAHSADPENPLLQTSCINSSTVLDLIGPNGKGHDKDFSTQTKKLSTSSNNDDKINGKPVDVKNPSVPLVDGESDPNKTTCEACNITFSRHETYMVHKQYYCATRHDPPLKRSASNKVPAMQRTMRTRKRRKMYEMCLPEQEQRPPLVQQRFLDVANLNNPCTSTQEPTEGLGECYHPRCDIFPGIVSKHLETSLTINKCVPVSKCDTTHSSVSCLEMDVPIDLSKKCLSQSERTTTSPKRLLDYHECTVCKISFNKVENYLAHKQNFCPVTAHQRNDLGQLDGKVFPNPESERNSPDVSYERSIIKCEKNGNLKQPSPNGNLFSSHLATLQGLKVFSEAAQLIATKEENRHLFLPQCLYPGAIKKAKGADQLSPYYGIKPSDYISGSLVIHNTDIEQSRNAENESPKGQASSNGCAALKKDSLPLLPKNRGMVIVNGGLKQDERPAANPQQENISQNPQHEDDHKSPSWISENPLAANENVSPGIPSAEEQLSSIAKGVNGSSQAPTSGKYCRLCDIQFNNLSNFITHKKFYCSSHAAEHVK",–,–,–,–,decreased,inhibited,reduces the apoptosis,increased,approximately 80%,about 40%,inhibited,increased apoptosis
